B1: mRNA-splicing (parent)
chain: AGUUGCUGCUGGGAGCUCCAGCACAGUGAAAUGGACAGAAGGGCAGAGCAA

Variants of: B1
Experiment: exon inclusion enrichment index; higher = more inclusion; WT1 exon 5 minigene, HEK293

Variant | exon inclusion enrichment index
G5A C6G U7G C9A C22A A23G | 0.000928
G5C C6G U7C U10C A45G | 5.32
U4C G5C C6U G8C C9U U10C | 2.17
G5C C6A U7C G8A U10A G26C U27C | 0.54
G5A C6U U7A G8U C9A C22G A23C | 0.0334
G2C U3G G5C C6A U7C G8A U10A | 0.148
G8C | 1.33
G5A U7C G8A U10C C22G A23C | 1.24
G5A C6U U7A G8U C9A G13C | 0.0162
G5C C6A U7C G8A U10A G38C | 0.0648
G5A U7C G8A U10C G33C G34A | 1.53
G5A C6U U7A G8U C9A G42A G43C | 1.53
C6A U7A C9A U10A C44A A45C | 1.9
G5A U7C G8A U10C A37C | 3.08
G5U G8U C9U G11C G12C | 0.0331
G5A U7C G8A U10C G15C | 2.72
G5A C6G U7G C9A G38C A39U | 0.000965
G5A C6G U7G C9A C22U | 0.000826
C6A U7A C9A U10A G43C C44U | 0.606
G5C C6A U7C G8A U10A A47G G48A | 0.0475
G5A U7C G8A U10C A23U C24U | 0.272
G5C C6U U7A G8A C9U U10C | 0.757
G5A C6G U7G C9A A25C G26C | 0.00427
G5C C6G U7G G8C C9U U10C | 2.15

Variant | exon inclusion enrichment index
G5U G8U C9U A31C U32G | 0.188
G5C C6U G8C C9U U10C G42U G43C | 1.23
C6A U7C C9A U10C G38U A39U | 0.32
G5C C6U G8C C9U U10C G26U U27A | 0.886
G5U G8U C9U G43C C44U | 0.0876
G5A C6U U7C G8A U10A | 0.0761
G5U G8U U10G | 1.8
G5C C6U G8C C9U U10C A29G A30C | 0.838
G5A C6G U7G C9A A20U | 0.00146
G5A C6G U7G C9A A20C | 0.00932
G5U G8U C9U A35C C36G | 0.125
G5C C6U G8C C9U U10C A47G G48U | 0.205
G5C C6G U7C U10C C16U | 4.22
G5C C6G U7C U10C C16A | 4.33
C6A U7A C9U U10C | 1.36
G2A U3C G5A U7C G8A U10C | 2.1
C6A U7A C9A U10A C36G A37C | 0.129
G5C C6A U7A G8C C9U U10C | 2.04
G5U G8U C9U G42C G43A | 0.494
G5A U7C G8A U10C G15C C16G | 2.13
G5C C6U G8C C9U U10C A37U G38C | 1.03
G38A A39U | 0.00515
G5A U7C G8A U10C C24A | 2.26
C6A U7C C9A U10C G34U A35G | 1.29

Variant | exon inclusion enrichment index
A45U G46U | 0.0239
G5C C6U G8C C9U U10C U32C G33U | 1.28
G5C C6A U7C G8A U10A C19G A20U | 0.0711
U4A G5A C6A U7A C9A U10A | 0.0853
G5A C6G U7G C9A A14C G15U | 0.000655
G5C C6G U7C U10C C18G | 3.71
G5A C6U U7A G8U C9A G12C G13C | 0.0141
C6A U7A C9A U10A G12C G13U | 0.355
G5A C6U U7A G8U C9A C18U C19A | 0.00119
G5U G8U C9U G21A C22G | 0.143
G5U G8U C9U G21A C22A | 0.0256
G5A C6G U7G C9A C19A | 0.00105
G5A C6G U7G C9A C19G | 0.00133
G5C C6G U7C U10C A35U | 1.25
G5C C6A U7C G8A U10A G26A U27G | 0.258
A40U G41U | 0.0512
G5A U7C G8A U10C A35U C36U | 0.0422
C6A U7C C9A U10C A39G A40G | 0.569
C6A U7C C9A U10C A39G A40C | 3.81
G34A A35C | 0.0806
C36G A37G | 0.0334
U3G U4A G5A C6G U7G C9A | 0.0126
C6A U7C C9A U10G G11A | 2.06
C6A U7A C9A U10A A23G C24G | 1.58

Variant | exon inclusion enrichment index
C6U U7G | 0.0137
C9A U10A | 0.914
G5A U7C G8A U10C A47U G48C | 1.6
C6A U7C C9A U10C A37C G38C | 3.1
C6A U7A C9A U10A A40C | 1.8
G5A C6G U7G C9A U27A G28U | 0.00161
C6A U7C C9A U10C G13A A14C | 3.39
G5A C6G U7G C9A A47C G48A | 0.011
G5C C6G U7C G8U C9U U10C | 2.82
G28C | 0.104
G5U G8U C9U A45U G46C | 0.11
C6A U7A C9A U10A U32G | 0.041
G5A C6A U7A G8U C9A | 0.0639
G34C A35U | 0.0271
G5A C6G U7G C9A U32A G33A | 0.00102
G5C C6A U7C G8A U10A G38C A39C | 0.136
G5C C6A U7C G8A U10A G41U G42A | 0.0336
U27G G28C | 0.101
G5A U7C G8A U10C A47U | 2
G5A U7C G8A U10C C16U | 2.53
C6A U7A G8C C9G U10A | 0.781
G5C C6U G8C C9U U10C A29U A30G | 2.16
G5C C6G G8A U10A | 0.226
G5U G8U C9U C16U | 0.128

Variant | exon inclusion enrichment index
G5A U7C G8A U10C G43C C44U | 1.59
C6A U7A C9A U10A A20U G21A | 0.432
C6A U7A C9A U10A A23U C24U | 0.0381
C6G U7G C9A U10A | 0.0539
G5A C6G U7G C9A A23U C24U | 0.000744
G5A C6U U7A G8U C9A A40G G41C | 0.455
G5U G8U C9U A29U A30U | 0.0146
G5C C6A U7C G8C U10A | 0.494
G5U G8U C9U A23C C24G | 0.632
G5U G8U C9U A23C C24U | 0.0326
C6A U7C C9A U10C A45G G46A | 4.93
G5C C6G U7C U10C G46A | 3.39
A47U | 0.105
G2C C6A U7C C9A U10C | 2.9
G5C C6A U7C G8A U10A A37G G38U | 0.0217
G5U G8U C9U G12U | 0.0166
G5U G8U C9U G12A | 0.0372
G5A C6U U7A G8U C9A A31U | 0.0565
G5C C6A U7C G8A U10A C22G A23C | 0.0525
C6A U7C C9A U10C G46C A47U | 2.64
A14U G15U | 0.0223
G13U A14G | 0.0891
U4G G5A G8U C9U | 0.369
G5U G8U C9U A45C | 0.201

Variant | exon inclusion enrichment index
C6A U7C C9A U10C A20C G21A | 2.38
G5C C6A U7C G8A U10A U17G C18U | 0.0504
G5A C6G U7G C9A A20C G21C | 0.000907
G5U G8U C9U A29G A30G | 0.0374
G5C C6A U7C G8A U10A G12U | 0.0134
C6A U7G G8A C9A U10A | 0.0362
G5C C6U G8C C9U U10C G33C G34C | 1.12
C6A U7A C9A U10A A31U | 0.592
C6A U7A C9A U10A G46C A47U | 0.833
C6A U7A C9A U10A G46C A47G | 1.23
G5A C6G U7G G8A C9U | 0.0075
G5C U7A C9A U10A | 0.367
G5C C6G U7C U10C A23U C24U | 0.822
G5A U7C G8A U10C G26A U27C | 3.43
C6A U7C C9A U10C A47G | 0.844
G5A C6U U7A G8U C9A A31C U32C | 0.363
G5A C6U U7A G8U C9A C36G | 0.0434
G5C C6G U7C U10C G28U A29C | 2.89
C6A U7C C9A U10C G34A A35U | 1.68
G5A C6G U7G C9A A30C A31C | 0.00182
G5C C6G U7C U10C C19U A20G | 1.14
G5C C6U G8C C9U U10C A14C G15U | 0.523
G5C C6G U7C U10C A29U | 1.68
G2A U3C G5A C6U U7A G8U C9A | 0.0801

Variant | exon inclusion enrichment index
G12A G13C | 1.2
C22A A23G | 1.76
G5U G8U C9U A37G G38U | 0.0298
G5C C6G U7C U10C A35U C36U | 0.0671
G12A | 1.7
C6A U7C C9A U10C C22A | 3.18
C6A U7C C9A U10C C22G | 3.9
G5A C6U U7A G8U C9A G11U | 0.0798
G5A C6U U7A G8U C9A A31U U32G | 0.0286
G5A U7C G8A U10C C19U A20G | 0.888
A35U | 0.0139
G5C C6G U7C U10C G21U C22U | 1.36
G5C C6G U7C U10C C16G U17C | 2.62
G5A C6G U7G C9A U17G C18A | 0.00242
G5A C6U U7A G8U C9A A14G G15C | 0.0123
C6A U7A C9A U10A A23C C24A | 0.907
G5A C6G U7G C9A G13A | 0.0025
C6A U7A C9A U10A A30G | 0.658
G5C C6A U7C G8A U10A C18U C19U | 0.00236
G5C C6G U7C U10C C16A U17C | 4.04
G5C C6G U7C U10C A39U A40G | 1.59
A14G G15C | 0.0893
G8A C9G | 0.0723

From the RNAGym collection of RNA variant scans (doi:10.1101/gr.219683.116)
